Reference: patent US20210032365A1 (Chugai, published 2021)
Numbering of substitutions follows the chain as printed. Each block holds one binder with its values, some of them ahead of it.

Key:
[1] = target: T1, human C1s (human, UniProt P09871 16-688); experiment: SPR; KD at pH 5.8 (1.2 mM Ca) over KD at pH 7.4 (1.2 mM Ca)
T1 construct: Analyte in the Biacore assays; also called hC1s; serum-derived human C1s (CompTech)
T1 sequence: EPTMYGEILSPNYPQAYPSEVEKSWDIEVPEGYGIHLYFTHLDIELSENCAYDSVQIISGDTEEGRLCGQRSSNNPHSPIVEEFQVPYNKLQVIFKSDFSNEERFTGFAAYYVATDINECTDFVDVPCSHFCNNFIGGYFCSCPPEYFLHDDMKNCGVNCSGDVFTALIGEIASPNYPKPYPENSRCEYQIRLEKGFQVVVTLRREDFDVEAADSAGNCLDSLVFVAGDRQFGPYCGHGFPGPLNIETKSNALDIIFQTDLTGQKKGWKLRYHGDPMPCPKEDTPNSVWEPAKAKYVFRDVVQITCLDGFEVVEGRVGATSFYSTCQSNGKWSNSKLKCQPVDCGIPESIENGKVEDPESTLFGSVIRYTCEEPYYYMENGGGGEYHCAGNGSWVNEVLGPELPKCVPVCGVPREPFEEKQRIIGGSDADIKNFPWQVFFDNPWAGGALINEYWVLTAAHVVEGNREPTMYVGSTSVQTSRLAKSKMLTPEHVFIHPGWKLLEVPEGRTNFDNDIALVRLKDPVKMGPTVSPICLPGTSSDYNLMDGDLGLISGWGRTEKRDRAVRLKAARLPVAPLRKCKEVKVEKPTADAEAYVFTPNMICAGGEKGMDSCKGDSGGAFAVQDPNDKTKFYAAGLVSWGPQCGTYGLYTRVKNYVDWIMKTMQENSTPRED
Protocol: (§1) Each antibody was captured onto the sensor surface by protein A/G. Antibody capture levels were aimed at 200 resonance unit (RU). Serum-derived human C1s (CompTech) or recombinant C1s prepared in EXAMPLE 1 was injected at 50 nM, followed by dissociation. The sensor surface was regenerated in each cycle with 10 mM Glycine-HCl, pH 1.5. […] The ratio of KD 5.8+ to KD 7.4+(“KD 5+/7+”) and that of KD 5.8− to KD 7.4+(“KD 5−/7+”) were calculated. When the KD 5+/7+ or KD 5−/7+ of a variant is larger than that of the parent antibody IPN009VH2-SG4GK/IPN009VK3-SK1, that variant is considered to be “pH”- or “pH and Ca”-dependent, respectively. When binding response in 5(+) buffer and/or in 5(−) buffer of a variant is much lower than that of IPN09VH2/IPN009VK3, that variant is also considered as “pH”- and/or “pH and Ca”-dependent. Therefore, such mutations are effective to generate “pH”- and/or “pH and Ca”-dependent antibody. To further enhance “pH” and/or “pH and Ca” dependency, a combination of histidine mutations was conducted. Antibodies with combinations of histidine mutations were evaluated using Biacore by the method described above.
(§2) C1_1IPN92H0033 (SEQ ID NO: 17)-SG4GK/IPN93L0024 (SEQ ID NO: 18)-SK1 (IPN92H0033/IPN93L0024) was selected for further optimization. Histidine, Lysine, Arginine, aspartic acid, glutamic acid, and glutamine scanning was conducted for CDRs and certain positions of FRs of IPN92H0033/IPN93L0024. Variants with a mutation were generated and purified, and evaluated using Biacore by the method mentioned above. All variants were evaluated using Biacore as mentioned above. Mutations that improved “pH” and/or “pH and Ca” dependency were selected for the combination.

[2] = target: T1, human C1s; experiment: SPR (Biacore T200, 37C), Ab captured on protein A/G; pH 5.8, 1.2 mM Ca
Protocol: as §1, §2

[3] = target: T1, human C1s; experiment: SPR; KD at pH 5.8 (3 uM Ca) over KD at pH 7.4 (1.2 mM Ca)
Protocol: as §1, §2

[4] = target: T1, human C1s; experiment: SPR (Biacore T200, 37C), Ab captured on protein A/G; pH 5.8, 3 uM Ca
Protocol: as §1, §2

- KD 5(+)/7(+) [1]: 4.1
- Kd [2]: 19.2 nM
- koff [2]: 0.0496 s⁻¹
- kon [2]: 2.58e+06 M⁻¹ s⁻¹
- KD 5(-)/7(+) [3]: 1.36
- Kd [4]: 6.4 nM
- koff [4]: 0.003 s⁻¹
- kon [4]: 469000 M⁻¹ s⁻¹
B1: C1_IPN92H0145-SG4GK/IPN93L0024-SK1 (antibody, human IgG4 S228P, kappa, name in Kabat numbering, V domains shown)
VH: EVMLVESGGGLVKPGGSLRLSCAASGFTFSNYAMSWVRQAPGKGLEWVATISSGGSRTYYLDSVKGRFTISRDNSKDTLYLQMNSLRAEDTALYYCARLFTGHAMDYWGQGTLVTVSS
VL: QIVLTQSPATLSLSPGERATLSCTASSSVSSSYLHWYQQKPGKAPKLWIYSTSNLASGVPSRFSGSGSGTDYTLTISSLQPEDFATYYCHQYYRLHPITFGQGTKLEIKR
notes: Substitutions from IPN009VH2, Kabat numbering; also called IPN92H0145/IPN93L0024

- KD 5(+)/7(+) [1]: 3.8
- Kd [2]: 13.1 nM
- koff [2]: 0.00799 s⁻¹
- kon [2]: 610000 M⁻¹ s⁻¹
- KD 5(-)/7(+) [3]: 2.26
- Kd [4]: 7.71 nM
- koff [4]: 0.00542 s⁻¹
- kon [4]: 703000 M⁻¹ s⁻¹
B2: C1_IPN92H0117-SG4GK/IPN93L0024-SK1 (antibody, human IgG4 S228P, kappa, name in Kabat numbering, V domains shown)
VH: B1 VH with S53Q, R57H
VL: B1 VL
notes: Substitutions from IPN009VH2, Kabat numbering; also called IPN92H0117/IPN93L0024

- KD 5(+)/7(+) [1]: 6.4
- Kd [2]: 13.2 nM
- koff [2]: 0.00589 s⁻¹
- kon [2]: 445000 M⁻¹ s⁻¹
- KD 5(-)/7(+) [3]: 1.58
- Kd [4]: 3.23 nM
B5: C1_IPN92H0147-SG4GK/IPN93L0024-SK1 (antibody, human IgG4 S228P, kappa, name in Kabat numbering, V domains shown)
VH: B1 VH with R57H, T58D
VL: B1 VL
notes: Substitutions from IPN009VH2, Kabat numbering; also called IPN92H0147/IPN93L0024

- KD 5(+)/7(+) [1]: 9.3
- Kd [2]: 18.8 nM
- koff [2]: 0.012 s⁻¹
- kon [2]: 636000 M⁻¹ s⁻¹
- KD 5(-)/7(+) [3]: 5.07
- Kd [4]: 10.3 nM
- koff [4]: 0.00583 s⁻¹
- kon [4]: 564000 M⁻¹ s⁻¹
B7: C1_IPN92H0157-SG4GK/IPN93L0024-SK1 (antibody, human IgG4 S228P, kappa, name in Kabat numbering, V domains shown)
VH: B1 VH with R57H, Y59R
VL: B1 VL
notes: Substitutions from IPN009VH2, Kabat numbering; also called IPN92H0157/IPN93L0024

- KD 5(+)/7(+) [1]: 7
- Kd [2]: 14.8 nM
- koff [2]: 0.00948 s⁻¹
- kon [2]: 641000 M⁻¹ s⁻¹
- KD 5(-)/7(+) [3]: 4.62
- Kd [4]: 9.8 nM
- koff [4]: 0.00632 s⁻¹
- kon [4]: 645000 M⁻¹ s⁻¹
B8: C1_IPN92H0156-SG4GK/IPN93L0024-SK1 (antibody, human IgG4 S228P, kappa, name in Kabat numbering, V domains shown)
VH: B1 VH with R57H, Y59K
VL: B1 VL
notes: Substitutions from IPN009VH2, Kabat numbering; also called IPN92H0156/IPN93L0024

Second part, the binder before the results:

B3: C1_IPN92H0033-SG4GK/IPN93L0072-SK1 (antibody, human IgG4 S228P, kappa, name in Kabat numbering, V domains shown)
VH: B1 VH with R57H
VL: B1 VL with S30K
notes: VL substitutions from IPN009VK3, Kabat numbering; also called IPN92H0033/IPN93L0072
- KD 5(+)/7(+) [1]: 6.7
- Kd [2]: 9.12 nM
- koff [2]: 0.00529 s⁻¹
- kon [2]: 530000 M⁻¹ s⁻¹
- KD 5(-)/7(+) [3]: 4.18
- Kd [4]: 5.72 nM
- koff [4]: 0.00553 s⁻¹
- kon [4]: 967000 M⁻¹ s⁻¹

B4: C1_IPN92H0033-SG4GK/IPN93L0090-SK1 (antibody, human IgG4 S228P, kappa, name in Kabat numbering, V domains shown)
VH: B1 VH with R57H
VL: B1 VL with Y33K
notes: VL substitutions from IPN009VK3, Kabat numbering; also called IPN92H0033/IPN93L0090
- KD 5(+)/7(+) [1]: 6.8
- Kd [2]: 9.52 nM
- koff [2]: 0.0055 s⁻¹
- kon [2]: 577000 M⁻¹ s⁻¹
- KD 5(-)/7(+) [3]: 5.13
- Kd [4]: 7.18 nM
- koff [4]: 0.00427 s⁻¹
- kon [4]: 595000 M⁻¹ s⁻¹

B6: C1_IPN92H0079-SG4GK/IPN93L0024-SK1 (antibody, human IgG4 S228P, kappa, name in Kabat numbering, V domains shown)
VH: B1 VH with Y32K, R57H
VL: B1 VL
notes: Substitutions from IPN009VH2, Kabat numbering; also called IPN92H0079/IPN93L0024
- KD 5(+)/7(+) [1]: 5.7
- Kd [2]: 19.3 nM
- koff [2]: 0.0162 s⁻¹
- kon [2]: 838000 M⁻¹ s⁻¹
- KD 5(-)/7(+) [3]: 2.6
- Kd [4]: 8.75 nM
- koff [4]: 0.0052 s⁻¹
- kon [4]: 594000 M⁻¹ s⁻¹

B9: C1_IPN92H0080-SG4GK/IPN93L0024-SK1 (antibody, human IgG4 S228P, kappa, name in Kabat numbering, V domains shown)
VH: B1 VH with Y32R, R57H
VL: B1 VL
notes: Substitutions from IPN009VH2, Kabat numbering; also called IPN92H0080/IPN93L0024
- KD 5(+)/7(+) [1]: 5
- Kd [2]: 15.9 nM
- koff [2]: 0.0129 s⁻¹
- kon [2]: 814000 M⁻¹ s⁻¹
- KD 5(-)/7(+) [3]: 2.86
- Kd [4]: 9.09 nM
- koff [4]: 0.00651 s⁻¹
- kon [4]: 717000 M⁻¹ s⁻¹
